Experimental data as given in article PMC8240970, “Orally delivered polycurcumin responsive to bacterial reduction for targeted therapy of inflammatory bowel disease” (Drug Delivery, 2017).
Marks after values point to notes of the source that are not given here.

Assays:
[1] = system: Caco-2 cells; assay: LDH release assay; details: 25 μg/mL Cur, within 2 h, versus control
Procedure: A lactate dehydrogenase (LDH) assay kit (Beyotime, Haimen, China) was used to determine the ability of PCur to destroy cell membranes. Briefly, Caco-2 cells seeded in a 96-well plate were incubated with Cur solution and PCur at 25 μg/mL concentration of Cur for 2 h, and serum-free medium was used as a control. After 1 h of incubation, 20 μL LDH release medium was added, followed by 1 h of co-incubation. One hundred and twenty microliter supernatant was transferred to a new plate at a determined time interval, followed by the addition of 60 μL LDH test medium and incubated for 30 min with gentle shaking. Finally, the absorption was measured at 490 nm on a microplate reader (Bio-Rad 500, Hercules, CA).

[2] = system: Caco-2 cells; assay: In vitro cytotoxicity by MTT assay; details: 1 to 100 μg/mL Cur, 2 h incubation
Procedure: In vitro cytotoxicity of PCur and Cur solution was assessed in Caco-2 cells by MTT assay. Caco-2 cells were seeded at a density of 1 × 10^5 cells/mL in 100 μL DMEM culture medium in a 96-well plate at 37 °C and 5% CO2. After 24 h of incubation, Caco-2 cells were exposed to Cur and PCur solution with different Cur concentrations for 2 h. Meanwhile, serum-free medium incubation without drug was utilized as a control. MTT solution (20 μL, 5 mg/mL in PBS) was then added to each well, and the cells were further incubated for 4 h. The supernatant was removed and 100 μL of DMSO was introduced to each well to dissolve formazan crystals. Optical density (OD) was measured with a microplate reader (Thermo Scientific, Waltham, MA) at 570 nm. The experiments were repeated at least four times. Cell viability (%) was calculated as the ratio of OD in test samples to OD in control samples.

[3] = system: DSS-induced IBD; assay: Pharmacodynamics in a murine DSS-induced IBD model (body weight, DAI, colon length, histology); assay type: in vivo, female C57BL/6 mice; details: for disease activity index (DAI) / recovery of shortened colon length / weight loss: 3% DSS for seven days, daily gavage, Cur 50 mg/kg; for weight loss: versus DSS or Cur suspension
Procedure: (§1) Animal experiments were performed in female C57BL/6 mice (eight weeks, 18–20 g). Colitis was induced by feeding mice with a 3% (wt./vol) DSS solution as drinking water for seven days. The daily evaluation of mice was based on changes in body weight and development of the clinical symptoms of colitis. Disease activity index (DAI) was calculated according to the parameter previously reported (Li et al., [2015]). […] The dosage of Cur was set at 50 mg/kg. Mice were sacrificed on day 7, and histological assessment of colonic inflammation was carried out by hematoxylin and eosin (H&E) staining of 5 μm colonic tissue sections, observed by microscopy (×20 magnification). The samples were scored for inflammatory infiltration (0–3), epithelial abnormality (0–3) and crypt damage (0–3) and then the values of the three variables were summed as an indicator of inflamed degree (Magro et al., [2013]).

[4] = system: TNF-α; assay: TNF-α level in colonic tissue by ELISA, DSS-induced IBD mice; assay type: in vivo, female C57BL/6 mice; details: oral, Cur 50 mg/kg
Procedure: as §1, with “[2013]). The levels of IL-6 and TNF-α in homogenized colonic tissue were measured by quantitative enzyme-linked immunosorbent assay (ELISA) kits according to manufacturer’s instructions (R&D Systems Inc., Minneapolis, MN). The final values of IL-6 and TNF-α were expressed as pg/mg or ng/mg protein (Qiao et al., [2014]).” for “[2013]).”

[5] = system: IL-6; assay: IL-6 level in colonic tissue by ELISA, DSS-induced IBD mice; assay type: in vivo, female C57BL/6 mice; details: oral, Cur 50 mg/kg
Procedure: as §1, with “[2013]). The levels of IL-6 and TNF-α in homogenized colonic tissue were measured by quantitative enzyme-linked immunosorbent assay (ELISA) kits according to manufacturer’s instructions (R&D Systems Inc., Minneapolis, MN). The final values of IL-6 and TNF-α were expressed as pg/mg or ng/mg protein (Qiao et al., [2014]).” for “[2013]).”

[6] = system: MPO activity; assay: Myeloperoxidase (MPO) activity in colon of DSS-induced IBD mice; assay type: in vivo, female C57BL/6 mice; details: oral, Cur 50 mg/kg
Procedure: as §1, with “[2013]). Neutrophil infiltration into the colon can be quantified by measuring MPO activity. […] The homogenate was then sonicated for 10 s, freeze-thawed three times, and centrifuged at 12 000 rpm for 15 min. The supernatant was then added to 1 mg/mL o-dianisidine hydrochloride and 0.0005% hydrogen peroxide, and the change in absorbance at 460 nm was measured.” for “[2013]).”

[7] = system: MDA content; assay: Malondialdehyde (MDA) content of colon of DSS-induced IBD mice; assay type: in vivo, female C57BL/6 mice; details: oral, Cur 50 mg/kg
Procedure: as §1, with “[2013]). Lipid peroxidation was evaluated by measuring the MDA content of the colon according to standard procedure protocol described in MDA Assay Kit (Beyotime, Haimen, China). In short, the colorimetric determination of MDA is based on the reaction of the reactive aldehyde with thiobarbituric acid at low pH (2–3) and temperature of 95 °C for 45 min. The pinkish resultant was extracted by n-butanol, and the absorbance was determined at 535 and 520 nm spectrophotometrically. […]” for “[2013]).”

[8] = In vitro release of PCur under different pH conditions; assay type: physicochemical
Procedure: Effect of pH values on drug release was also evaluated in the following buffers: hydrochloric acid/potassium chloride (pH 1.2), acetic acid/sodium acetate (pH 6.5) and PBS (pH 7.4). Buffer selection was based on the normal variations of the pH in the GIT from the stomach (pH 1.5) and the proximal small intestine (pH 6.0–6.8) to the ileocecal region (pH 7.3) (Hua et al., [2015]). One milliliter of sample (containing 1.2 mg of Cur) was placed in a dialysis bag, immersed into each media containing 0.1% (w/v) Tween 80 for drug release.

[9] = Pharmacokinetic study after oral administration; set-up: species or system Sprague–Dawley (SD) rats; details: rat, in vivo, 50 mg/kg
Procedure: Pharmacokinetics of PCur and Cur suspension were tested in SD rats, which were randomly divided into two study groups with six in each group. […] Three hundred microliter of blood samples were collected at 5, 10, 15, 30 and 45 min, 1, 2, 4, 8, 12 and 24 h post oral gavage and centrifuged at 12 000 rpm for 10 min. The supernatant plasma was collected and stored at −20 °C for UPLC–MS/MS analysis. The concentration of Cur was determined by a Waters ACQUITY UPLC system using a Xevo Triple Quadrupole MS equipped with an electrospray ionization (ESI) interface (Waters Co., Milford, MA). One hundred microliter plasma was mixed with 50 μL chloramphenicol (IS) and 50 μL acetonitrile, followed by vortexing for 3 min, and centrifuged at 12 000 rpm for 10 min. […] An aliquot of 5 μL was injected into the UPLC–MS/MS for analysis. Pharmacokinetic parameters were calculated using DAS 2.1 software (BioGuider Co., Shanghai, China).

[10] = In vitro release of Cur from PCur in pH 7.4 PBS with or without GSH; assay type: physicochemical
[11] = Drug-loading content (Cur content in PCur); assay type: physicochemical
[12] = Particle size and zeta potential by dynamic light scattering; assay type: physicochemical; details: in water, 25 °C
[13] = In vitro stability testing of PCur (size by DLS, morphology by TEM); assay type: physicochemical; details: 37 °C
Text: A small portion of solution was collected at predetermined time points to measure the size distribution of PCur conjugate by DLS.

[14] = system: Caco-2 cell monolayer; assay: Transcellular study, apparent permeability coefficient; assay type: in vitro ADME
Procedure: A 400 μL of culture medium was added to the apical (AP) side, and 600 μL was added to the basolateral (BL) side. The medium in both the AP and BL sides was changed every two days for the first week and every day thereafter. After 21 days of incubation, the integrity of the cell monolayers was evaluated by measuring transepithelial electrical resistance (TEER) values using a Millicell® electrical resistance system (Millipore, Billerica, MA). When the TEER value of inserts exceeded […], indicating cell monolayers were integrated and tight junctions were intact, they were selected for further transport studies. For transcellular research, the culture medium in the AP and BL side was removed and changed by HBSS. […] Six hundred microliter of fresh HBSS was added to the BL side. […] One hundred microliter of sample was mixed with 50 μL chloramphenicol (IS) and 50 μL acetonitrile, vortexed and centrifuged. The concentration of Cur in supernatant was determined by UPLC–MS/MS. At the end of the experiment, TEER values were assayed to estimate the integrity of the cell monolayers. The apparent permeability coefficient (Papp) for Cur was calculated according to the following equation: Papp=(dQ/dt)/(A×C0) where the dQ/dt was the drug permeation rate, A was the surface area of polycarbonate membrane and C0 was the initial concentration of Cur in AP side.

Q: Which LDH leakage [1] does the source give for `COc1cc(/C=C/C(=O)CC(=O)/C=C/c2ccc(O)c(OC)c2)ccc1O` [Cur solution, Curcumin] here?
A: no significant LDH leakage

Q: And the cellular viability [2]?
A: neither Cur solution nor PCur induced any significant changes

Q: For `O=C(O)c1cc(/N=N/c2ccc(S(=O)(=O)Nc3ccccn3)cc2)ccc1O` [SSZ, sulfasalazine, reference compound], which “disease activity index (DAI)” value [3] is on record?
A: successfully mitigated

Q: What about the “recovery of shortened colon length” value [3] of the same compound?
A: strongest efficacies

Q: And the weight loss [3]?
A: less weight loss

Q: And the “inhibition of the production of TNF-α in colonic tissue” value [4]?
A: strongest efficacy

Q: What about the “inhibition of the production of IL-6 in colonic tissue” value [5] of the same compound?
A: strongest efficacy

Q: Which results are given for PEG-ss-curcumin [PCur]?
A: MPO activity in colonic tissue [6]: strongly decreased; MDA content in colonic tissue [7]: strongly decreased; disease activity index (DAI) [3]: successfully mitigated; recovery of shortened colon length [3]: strongest efficacies; weight loss [3]: less weight loss; histological examination of colon (H&E) ([3]; day 7, versus DSS mice receiving PBS or Cur suspension): intact epitheliums, well-defined crypt structures and relatively low levels of neutrophil invasion; Cur released ([8]; buffer of pH 6.5, 24 h): less than 25%; Cur released ([8]; buffer of pH 6.5, first 2 h): 10%; pH-responsive release characteristic ([8]; pH 7.4, 6.5 and 1.2): No significant pH-responsive release characteristic; AUC0–24 h [9]: 202.05 ± 6.72^b h ng/mL; AUC0–∞ [9]: 223.52 ± 5.25^b h ng/mL; AUC(0 − 24) increase relative to Cur suspension [9]: 8.63 times; Cmax [9]: 23.35 ± 0.96^b ng/mL; Cmax relative to Cur suspension [9]: 3.41 fold; MRT0–∞ [9]: 9.60 ± 2.28^a h; T1/2 [9]: 6.77 ± 1.40 h; Tmax [9]: 0.50 ± 0.25^a h; Cur released ([10]; pH 7.4 PBS with 10 mM GSH, in 2 h): ~30%; Cur released ([10]; pH 7.4 PBS with 10 mM GSH, within 24 h): 53%; Cur released ([10]; pH 7.4 buffer, without or with 10 μM GSH, first 2 h): less than 10%; Cur released ([10]; pH 7.4 buffer, without or with 10 μM GSH, within 24 h): approximately 15%; loading content ([11]; calculated from integrated areas of 1H NMR spectra): 12.5%; loading content ([11]; determined by fluorescence spectra): ~14.6%; average particle size ([12]; DLS): 134.4 ± 4.2 nm; Zeta potential [12]: −3.3 ± 1.2 mV; inhibition of the production of TNF-α in colonic tissue [4]: strongest efficacy; change of particle size distribution ([13]; pH 1.2 and pH 7.4 PBS): little change; change of mean diameter ([13]; pH 7.4 PBS with 10 mM GSH): substantially increased; apparent permeability coefficient (Papp) of Cur [14]: 2.38 ± 0.29 × 10^−6 cm/s; inhibition of the production of IL-6 in colonic tissue [5]: strongest efficacy
